The source of these data is paper PMC2198872.

The experiment addresses actin (filamentous actin from chicken pectoralis) (chicken) (UniProt P68139). In words: laser trap.

The substance “M5HMM(tag) with calmodulin (from UniProt Q99104 1-1098; P0DP23 1-149) (complex)” displayed a displacement duration (t on, time attached to actin) of 100 ms. Consider “baculovirus-expressed (-)insert isoform of smooth muscle myosin HMM (from UniProt P10587 1-1979) (complex)”, for which the displacement duration, step 1 of double step events is 468 ms and the displacement duration, step 2 of double step events came to 400 ms. In turn, “M5HMM containing only bound calmodulin (from UniProt Q99104 1-1098; P0DP23 1-149) (complex)” displayed a displacement duration (t on, time attached to actin) of 120 ms.
